T1: MMP2 (human pro-MMP2 activated with APMA) (human, UniProt P08253 30-660)
T1 sequence (looked up): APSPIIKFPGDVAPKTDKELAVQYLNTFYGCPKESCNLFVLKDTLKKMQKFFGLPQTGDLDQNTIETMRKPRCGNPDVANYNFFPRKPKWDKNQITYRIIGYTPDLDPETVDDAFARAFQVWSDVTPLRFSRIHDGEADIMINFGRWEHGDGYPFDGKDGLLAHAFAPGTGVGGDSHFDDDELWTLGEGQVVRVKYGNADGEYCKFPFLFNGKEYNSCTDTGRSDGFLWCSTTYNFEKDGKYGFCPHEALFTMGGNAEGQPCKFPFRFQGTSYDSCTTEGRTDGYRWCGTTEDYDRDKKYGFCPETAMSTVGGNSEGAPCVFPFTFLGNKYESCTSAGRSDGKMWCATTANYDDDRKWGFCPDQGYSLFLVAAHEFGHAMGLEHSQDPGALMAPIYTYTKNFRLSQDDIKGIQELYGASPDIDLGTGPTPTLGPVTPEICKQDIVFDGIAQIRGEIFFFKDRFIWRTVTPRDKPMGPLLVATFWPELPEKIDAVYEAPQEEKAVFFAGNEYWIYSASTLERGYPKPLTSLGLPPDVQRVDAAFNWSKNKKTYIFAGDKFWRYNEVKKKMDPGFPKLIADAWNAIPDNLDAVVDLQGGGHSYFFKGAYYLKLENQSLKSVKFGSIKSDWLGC


Assays:
Assay in all cases: cell-based or functional assay
[1] = biological target: T1, MMP2 (human pro-MMP2 activated with …)
[2] = biological target: catalytic domain of human MMP9 (human, UniProt P14780 107-444, limits assumed)
[3] = biological target: MMP13 (active MMP13, or pro-MMP-13 activated with APMA) (UniProt P45452 20-471, limits assumed)

Chain of catalytic domain of human MMP9 (P14780 107-444 limits assumed): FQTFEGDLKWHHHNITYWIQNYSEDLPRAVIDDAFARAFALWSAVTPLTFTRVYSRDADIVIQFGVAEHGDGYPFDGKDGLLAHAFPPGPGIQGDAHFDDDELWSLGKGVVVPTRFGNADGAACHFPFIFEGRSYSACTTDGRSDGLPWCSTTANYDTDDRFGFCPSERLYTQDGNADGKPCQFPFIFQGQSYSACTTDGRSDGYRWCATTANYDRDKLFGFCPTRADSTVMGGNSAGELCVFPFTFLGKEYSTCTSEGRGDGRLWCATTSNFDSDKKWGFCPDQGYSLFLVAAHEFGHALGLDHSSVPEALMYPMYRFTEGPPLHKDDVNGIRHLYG

| MMP2 IC50 [1] [nM] | MMP9 IC50 [2] [nM] | MMP13 IC50 [3] [nM] | Binder |
| --- | --- | --- | --- |
| 0.6 | 1 | 0.9 | wild-type TIMP-3 (native human tissue inhibitor of metalloproteinase 3) (other) CTCSPSHPQDAFCNSDIVIRAKVVGKKLVKEGPFGTLVYTIKQMKMYRGFTKMPHVQYIHTEASESLCGLKLEVNKYQYLLTGRVYDGKMYTGLCNFVERWDQLTLSQRKGLNYRYHLGCNCKIKSCYYLPCFVTSKNECLWTDMLSNFGYPGYQSKHYACIRQKGGYCSWYRGWAPPDKSIINATDP |
| 0.8 | 0.5 | 2.2 | TIMP-3 mutein T63N, K65T (other) CTCSPSHPQDAFCNSDIVIRAKVVGKKLVKEGPFGTLVYNITQMKMYRGFTKMPHVQYIHTEASESLCGLKLEVNKYQYLLTGRVYDGKMYTGLCNFVERWDQLTLSQRKGLNYRYHLGCNCKIKSCYYLPCFVTSKNECLWTDMLSNFGYPGYQSKHYACIRQKGGYCSWYRGWAPPDKSIINATDP |
| 0.5 | 4.6 | 0.5 | TIMP-3 mutein F57N (other) CTCSPSHPQDAFCNSDIVIRAKVVGKKLVKEGPNGTLVYTIKQMKMYRGFTKMPHVQYIHTEASESLCGLKLEVNKYQYLLTGRVYDGKMYTGLCNFVERWDQLTLSQRKGLNYRYHLGCNCKIKSCYYLPCFVTSKNECLWTDMLSNFGYPGYQSKHYACIRQKGGYCSWYRGWAPPDKSIINATDP |
| 1 | 2.3 | 3.1 | TIMP-3 mutein P56N, G58T (other) CTCSPSHPQDAFCNSDIVIRAKVVGKKLVKEGNFTTLVYTIKQMKMYRGFTKMPHVQYIHTEASESLCGLKLEVNKYQYLLTGRVYDGKMYTGLCNFVERWDQLTLSQRKGLNYRYHLGCNCKIKSCYYLPCFVTSKNECLWTDMLSNFGYPGYQSKHYACIRQKGGYCSWYRGWAPPDKSIINATDP |
| 0.3 | 4 | – | TIMP-3 mutein K45S, F57N (other) CTCSPSHPQDAFCNSDIVIRASVVGKKLVKEGPNGTLVYTIKQMKMYRGFTKMPHVQYIHTEASESLCGLKLEVNKYQYLLTGRVYDGKMYTGLCNFVERWDQLTLSQRKGLNYRYHLGCNCKIKSCYYLPCFVTSKNECLWTDMLSNFGYPGYQSKHYACIRQKGGYCSWYRGWAPPDKSIINATDP |
